Data on three substances can be found in PMC2064708.

Assay [1] concerns the target Shp2 (UniProt Q06124). Nature of the assay: co-IP, anti-β4 IP, Shp2 blot. As to conditions: reference: wild-type β4; sites Y1257,Y1494.
Assay [2] has as its target Shp2 N-terminal SH2-containing domain (UniProt Q06124). Put plainly: far-Western of β4 IP with GST-Shp2. The note with it: reference: wild-type β4.

Take “β4 integrin (from UniProt P16144-2) double mutant Y1257F/Y1494F”: the “binding against the reference” value in assay [1] is “weaker”.
Turning to “β4 integrin (from UniProt P16144-2) β4-Y1440F”, the “binding against the reference” value in assay [2] (sites Y1440) was “weaker”.
As for “β4 integrin (from UniProt P16144-2) β4-ΔShp2D (Y1257F, Y1494F)”, the “binding against the reference” value in assay [2] (sites Y1257,Y1494) is “weaker”.
